Data set [1] addresses T1, ATP-DmORC (DmORC^Orc1ΔN), DNA-free (Drosophila melanogaster, UniProt O16810+Q24169+Q7K2L1+Q9W102).
T1 construct: gene Orc1; heterohexamer; Orc1 lacking N-terminal 439 residues (truncation inferred for the DNA-free structure); tags cut by TEV; Hi5 insect cells; with Origin recognition complex subunit 2; Origin recognition complex subunit 6
In words: cryo-EM structure. In kind it is binding. The settings on record: no DNA, no Cdc6; active conformation.

The target in the next data set is T2, wild type DmORC (Drosophila melanogaster, UniProt O16810+Q9W102).
T2 construct: gene Orc1; full-length heterohexamer Orc1-6; 6xHis (Orc1) and MBP (Orc4) tags cut by TEV; Hi5 insect cells; with Origin recognition complex subunit 2; Origin recognition complex subunit 3; Origin recognition complex subunit 5; Origin recognition complex subunit 6
T2 sequence (O16810 whole entry): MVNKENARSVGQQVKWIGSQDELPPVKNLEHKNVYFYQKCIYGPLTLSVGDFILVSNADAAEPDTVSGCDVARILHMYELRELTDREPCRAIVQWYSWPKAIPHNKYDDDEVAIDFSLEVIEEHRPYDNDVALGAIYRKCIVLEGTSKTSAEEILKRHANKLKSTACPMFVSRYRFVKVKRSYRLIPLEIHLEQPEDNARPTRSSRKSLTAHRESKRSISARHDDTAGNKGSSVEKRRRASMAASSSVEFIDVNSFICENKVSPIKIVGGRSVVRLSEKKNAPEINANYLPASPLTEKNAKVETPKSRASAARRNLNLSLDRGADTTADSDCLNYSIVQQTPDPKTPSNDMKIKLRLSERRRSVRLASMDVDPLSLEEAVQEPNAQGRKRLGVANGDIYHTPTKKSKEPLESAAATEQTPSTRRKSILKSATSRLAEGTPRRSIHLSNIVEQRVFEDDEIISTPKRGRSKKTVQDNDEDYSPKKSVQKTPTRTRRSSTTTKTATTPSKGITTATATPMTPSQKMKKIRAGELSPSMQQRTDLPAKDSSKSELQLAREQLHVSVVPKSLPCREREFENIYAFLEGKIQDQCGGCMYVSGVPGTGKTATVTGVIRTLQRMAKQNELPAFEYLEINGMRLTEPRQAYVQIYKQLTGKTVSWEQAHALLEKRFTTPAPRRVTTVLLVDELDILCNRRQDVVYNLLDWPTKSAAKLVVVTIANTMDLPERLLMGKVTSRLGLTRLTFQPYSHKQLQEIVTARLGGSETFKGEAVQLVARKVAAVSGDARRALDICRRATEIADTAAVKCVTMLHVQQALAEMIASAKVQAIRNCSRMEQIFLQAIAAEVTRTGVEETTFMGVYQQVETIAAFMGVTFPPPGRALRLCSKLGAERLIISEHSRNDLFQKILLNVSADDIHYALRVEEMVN
T2 sequence (Q9W102 1-459): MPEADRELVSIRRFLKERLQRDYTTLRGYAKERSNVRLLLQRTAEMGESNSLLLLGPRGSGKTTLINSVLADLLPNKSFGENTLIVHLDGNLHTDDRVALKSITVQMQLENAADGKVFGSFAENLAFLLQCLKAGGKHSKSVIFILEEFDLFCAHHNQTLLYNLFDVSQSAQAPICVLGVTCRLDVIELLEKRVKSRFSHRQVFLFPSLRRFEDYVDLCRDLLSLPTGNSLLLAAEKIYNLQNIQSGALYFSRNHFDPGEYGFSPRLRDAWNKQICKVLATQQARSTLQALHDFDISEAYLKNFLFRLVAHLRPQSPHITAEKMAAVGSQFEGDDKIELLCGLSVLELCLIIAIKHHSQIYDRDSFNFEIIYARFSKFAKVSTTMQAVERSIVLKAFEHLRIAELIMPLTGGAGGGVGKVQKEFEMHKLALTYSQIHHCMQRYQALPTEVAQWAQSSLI
T2 sequence (Q24168 whole entry partner): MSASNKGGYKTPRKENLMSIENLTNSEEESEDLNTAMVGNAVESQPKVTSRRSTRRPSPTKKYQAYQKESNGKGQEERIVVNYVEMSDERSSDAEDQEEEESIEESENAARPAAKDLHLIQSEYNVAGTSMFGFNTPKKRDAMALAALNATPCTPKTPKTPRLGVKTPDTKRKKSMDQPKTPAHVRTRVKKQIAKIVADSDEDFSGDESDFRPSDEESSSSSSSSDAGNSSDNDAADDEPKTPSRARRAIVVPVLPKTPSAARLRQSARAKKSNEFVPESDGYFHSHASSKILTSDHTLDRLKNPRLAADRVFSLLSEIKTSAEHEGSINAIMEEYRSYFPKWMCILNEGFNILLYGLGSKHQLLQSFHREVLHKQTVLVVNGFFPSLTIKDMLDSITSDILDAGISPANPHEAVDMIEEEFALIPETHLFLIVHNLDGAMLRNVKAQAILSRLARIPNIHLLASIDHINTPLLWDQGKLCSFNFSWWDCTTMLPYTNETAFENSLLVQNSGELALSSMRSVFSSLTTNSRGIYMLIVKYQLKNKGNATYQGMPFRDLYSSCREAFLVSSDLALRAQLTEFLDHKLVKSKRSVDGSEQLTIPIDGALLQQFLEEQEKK
T2 sequence (Q7K2L1 1-721 partner): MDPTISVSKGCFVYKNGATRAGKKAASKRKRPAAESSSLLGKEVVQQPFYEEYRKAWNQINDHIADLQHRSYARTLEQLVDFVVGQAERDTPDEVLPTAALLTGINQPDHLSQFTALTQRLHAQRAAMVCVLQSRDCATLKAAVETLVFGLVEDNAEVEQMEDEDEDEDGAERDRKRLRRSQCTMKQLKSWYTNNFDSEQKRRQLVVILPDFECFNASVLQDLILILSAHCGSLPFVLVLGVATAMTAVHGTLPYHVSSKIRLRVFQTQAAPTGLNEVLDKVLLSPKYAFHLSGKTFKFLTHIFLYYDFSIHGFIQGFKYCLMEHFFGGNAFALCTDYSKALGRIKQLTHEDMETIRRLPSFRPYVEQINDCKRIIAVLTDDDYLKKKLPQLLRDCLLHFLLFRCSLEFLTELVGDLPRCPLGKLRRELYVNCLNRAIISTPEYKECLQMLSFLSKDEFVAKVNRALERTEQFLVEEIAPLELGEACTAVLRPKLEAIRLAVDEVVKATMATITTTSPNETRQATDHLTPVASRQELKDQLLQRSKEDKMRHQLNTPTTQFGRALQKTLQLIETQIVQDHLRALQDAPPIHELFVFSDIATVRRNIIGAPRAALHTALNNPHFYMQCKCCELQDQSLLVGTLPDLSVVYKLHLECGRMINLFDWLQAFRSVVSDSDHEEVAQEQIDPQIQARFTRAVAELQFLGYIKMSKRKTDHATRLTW
T2 sequence (Q24169 whole entry partner): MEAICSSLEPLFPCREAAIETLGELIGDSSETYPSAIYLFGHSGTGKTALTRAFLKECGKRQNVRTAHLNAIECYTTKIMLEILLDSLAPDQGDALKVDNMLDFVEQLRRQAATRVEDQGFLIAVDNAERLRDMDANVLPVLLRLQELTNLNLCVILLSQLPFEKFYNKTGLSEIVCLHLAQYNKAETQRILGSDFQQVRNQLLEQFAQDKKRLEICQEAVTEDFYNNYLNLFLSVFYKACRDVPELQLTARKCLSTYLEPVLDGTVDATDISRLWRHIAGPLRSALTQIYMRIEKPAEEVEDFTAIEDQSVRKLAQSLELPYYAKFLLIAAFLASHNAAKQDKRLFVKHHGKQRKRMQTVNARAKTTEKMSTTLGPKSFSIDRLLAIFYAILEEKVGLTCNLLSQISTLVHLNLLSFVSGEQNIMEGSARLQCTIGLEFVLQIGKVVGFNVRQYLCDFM
T2 sequence (Q9Y1B2 whole entry partner): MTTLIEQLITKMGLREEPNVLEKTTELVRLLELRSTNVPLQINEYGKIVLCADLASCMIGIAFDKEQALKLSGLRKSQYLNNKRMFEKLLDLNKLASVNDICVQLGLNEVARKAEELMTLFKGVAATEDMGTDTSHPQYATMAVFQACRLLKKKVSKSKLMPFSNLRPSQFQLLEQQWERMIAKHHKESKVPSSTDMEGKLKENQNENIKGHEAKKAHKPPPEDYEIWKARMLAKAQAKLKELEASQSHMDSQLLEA
Nature of the data set: NADH-coupled ATPase assay (PK/LDH), Michaelis-Menten fit. Conditions: pH 7.6, 10 mM magnesium acetate, 300 mM potassium glutamate, 27 °C, no DNA; Orc1/4 site. In kind it is biochemical.

The next data set has as its target DmORC Orc4-R97A (Drosophila melanogaster, UniProt O16810;Q24168;Q7K2L1;Q9W102;Q24169;Q9Y1B2 1-924;1-618;1-721;1-459;1-460;1-257, R97A). Nature of the data set: fluorescence anisotropy; 1 mM ATP; Anisotropy: 1 nM dsDNA, 25 mM HEPES-KOH pH 7.6, 300 mM K-glutamate, 10 mM Mg-acetate, 10% glycerol, 0.1% NP40, 1 mM DTT, 0.1 mg/mL BSA, 0 or 1 mM ATP, 25 C, 40. The settings on record: protein: recombinant; tags: tags cleaved; copies: 1;1;1;1;1;1; label: 5' fluorescein-dT (/5FluorT/) on top strand; blunt 40 bp; the 5' fluorescein-dT may add one unpaired T. (Polarisation of emitted light reports the rotation of a fluorescent probe.)

The target of the next data set is DmORC Orc3-K141A (Drosophila melanogaster, UniProt O16810;Q24168;Q7K2L1;Q9W102;Q24169;Q9Y1B2 1-924;1-618;1-721;1-459;1-460;1-257, K141A). The description is as above. Conditions: protein: recombinant; tags: tags cleaved; copies: 1;1;1;1;1;1; label: 5' fluorescein-dT (/5FluorT/) on top strand; blunt 40 bp; the 5' fluorescein-dT may add one unpaired T.
In data set [2] the target is T3, Drosophila origin recognition complex, full-length (DmORC) (Drosophila, UniProt O16810 1-924; Q24168 1-618; Q7K2L1 1-721; Q9W102 1-459; Q24169 1-460; Q9Y1B2 …).
T3 construct: Orc1, Drosophila, subunit of full-length DmORC; Orc2, Drosophila, subunit of full-length DmORC; Orc3, Drosophila, subunit of full-length DmORC; Orc4, Drosophila, subunit of full-length DmORC; Orc5, Drosophila, subunit of full-length DmORC; Orc6, Drosophila, subunit of full-length DmORC; Heterohexamer Orc1-6; also called wild type DmORC; not shown: 6xHis, N-terminal, cleaved; MBP, N-terminal, …
Nature of the data set: pull-down; MBP-DmCdc6 or 6xHis-MBP-DmCdc6ΔN (200 nM) as bait on amylose beads; DmORC (100 nM) with 60 bp AT-rich dsDNA (100 nM); 25 mM HEPES-KOH pH 7.6, 300 mM potassium glutamate, 10 mM magnesium acetate, 10% glycerol, 1 mM DTT, 0 or 1 mM ATP; 25 °C; SDS-PAGE and silver staining. The settings on record: both partners purified.

The target in data set [3] is T4, DmORC (Orc1-6) wild type (Drosophila melanogaster, UniProt O16810;Q24168;Q7K2L1;Q9W102;Q24169;Q9Y1B2 1-924;1-618;1-721;1-459;1-460;1-257). In words: fluorescence anisotropy; 1 mM ATP; Hill fit (quadratic fit 1.7 nM); Anisotropy: 1 nM dsDNA, 25 mM HEPES-KOH pH 7.6, 300 mM K-glutamate, 10 mM Mg-acetate, 10% glycerol, 0.1% NP40, 1 mM DTT, 0.1 mg/mL BSA, 0 or 1 mM ATP, 25 C, 40. The settings on record: protein: recombinant; tags: 6xHis-Orc1 and MBP-Orc4 tags cleaved by TEV; copies: 1;1;1;1;1;1; label: 5' fluorescein-dT on top strand; blunt 40 bp; the 5' fluorescein-dT may add one unpaired T.

For the next data set, the target named is DmORC Orc1deltaN (Drosophila melanogaster, UniProt O16810;Q24168;Q7K2L1;Q9W102;Q24169;Q9Y1B2 440-924;1-618;1-721;1-459;1-460;1-257). In words: cryo-EM; gel filtration; ATP, Mg2+; Anisotropy: 1 nM dsDNA, 25 mM HEPES-KOH pH 7.6, 300 mM K-glutamate, 10 mM Mg-acetate, 10% glycerol, 0.1% NP40, 1 mM DTT, 0.1 mg/mL BSA, 0 or 1 mM ATP, 25 C, 40. Conditions: protein: recombinant; tags: tags cleaved; copies: 1;1;1;1;1;1; blunt.

Data set [4] concerns the target T5, DmORC Orc1deltaN;DmCdc6deltaN241 (Drosophila melanogaster;Drosophila …, UniProt O16810;Q24168;Q7K2L1;Q9W102;Q24169;Q9Y1B2;Q9VSM9 …, |del1-241). Nature of the data set: cryo-EM; gel filtration; ATP, Mg2+; DNA bent 46 deg; Anisotropy: 1 nM dsDNA, 25 mM HEPES-KOH pH 7.6, 300 mM K-glutamate, 10 mM Mg-acetate, 10% glycerol, 0.1% NP40, 1 mM DTT, 0.1 mg/mL BSA, 0 or 1 mM ATP, 25 C, 40. The settings on record: protein: recombinant;recombinant; tags: tags cleaved;6xHis-MBP cleaved by TEV; copies: 1;1;1;1;1;1;1; blunt.

Data set [5] has as its target T4, DmORC (Orc1-6) wild type. Nature of the data set: fluorescence anisotropy; 1 mM ATP; Anisotropy: 1 nM dsDNA, 25 mM HEPES-KOH pH 7.6, 300 mM K-glutamate, 10 mM Mg-acetate, 10% glycerol, 0.1% NP40, 1 mM DTT, 0.1 mg/mL BSA, 0 or 1 mM ATP, 25 C, 40. The settings on record: protein: recombinant; tags: 6xHis-Orc1 and MBP-Orc4 tags cleaved by TEV; copies: 1;1;1;1;1;1; label: 5' fluorescein-dT on top strand; blunt 40 bp; the 5' fluorescein-dT may add one unpaired T.

Data set [6] concerns the target T5, DmORC Orc1deltaN;DmCdc6deltaN241. In words: cryo-EM; ATP, Mg2+; state 1, bend ~22 deg; Anisotropy: 1 nM dsDNA, 25 mM HEPES-KOH pH 7.6, 300 mM K-glutamate, 10 mM Mg-acetate, 10% glycerol, 0.1% NP40, 1 mM DTT, 0.1 mg/mL BSA, 0 or 1 mM ATP, 25 C, 40. The settings on record: protein: recombinant;recombinant; tags: tags cleaved;6xHis-MBP cleaved by TEV; copies: 1;1;1;1;1;1;1; blunt.

Here are results for 7 molecules from paper PMC7450096, “Structural mechanism for replication origin binding and remodeling by a metazoan origin recognition complex and its co-loader Cdc6” (Nature Communications, 2020).

T1 sequence (O16810 440-924, stated change not applied): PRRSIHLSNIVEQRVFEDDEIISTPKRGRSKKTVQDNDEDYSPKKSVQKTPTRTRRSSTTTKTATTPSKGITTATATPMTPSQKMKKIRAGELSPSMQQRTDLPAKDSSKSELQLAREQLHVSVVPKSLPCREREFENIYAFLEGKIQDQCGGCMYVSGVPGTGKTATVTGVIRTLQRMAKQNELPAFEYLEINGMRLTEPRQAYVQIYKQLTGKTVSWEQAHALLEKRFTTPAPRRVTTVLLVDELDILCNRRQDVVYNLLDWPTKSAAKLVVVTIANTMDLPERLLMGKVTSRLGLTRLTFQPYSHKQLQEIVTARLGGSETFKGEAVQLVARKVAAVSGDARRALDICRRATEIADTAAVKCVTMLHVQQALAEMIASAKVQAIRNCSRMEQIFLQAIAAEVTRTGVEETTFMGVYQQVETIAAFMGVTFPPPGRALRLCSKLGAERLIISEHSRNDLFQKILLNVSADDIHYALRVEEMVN
T1 sequence (Q9W102 1-459, stated change not applied): as the sequence (Q9W102 1-459) above
T1 sequence (Q24169 whole entry, stated change not applied, the tested form may be a part): as the sequence (Q24169 whole entry partner) above
T1 sequence (Q7K2L1 1-721, stated change not applied): as the sequence (Q7K2L1 1-721 partner) above
T1 sequence (Q24168 whole entry partner, the tested form may be a part): as the sequence (Q24168 whole entry partner) above
T1 sequence (Q9Y1B2 whole entry partner, the tested form may be a part): as the sequence (Q9Y1B2 whole entry partner) above

With `Nc1ncnc2c1ncn2[C@@H]1O[C@H](COP(=O)(O)OP(=O)(O)OP(=O)(O)O)[C@@H](O)[C@H]1O` [ATP], the cryo-EM structure result in data set [1] is on record as “our DNA-free ATP-DmORC cryo-EM structure”. The “NADH-coupled ATPase assay (PK/LDH), Michaelis-Menten fit” value at wild type DmORC is listed as “we measured the ATP hydrolysis rates of wild type DmORC”.

B1: 40 bp AT-rich (ARS1-like) (dsDNA)
DNA 1: TTTTGAAAAGCAAGCATAAAAGATCTAAACATAAAATCTG
DNA 2: CAGATTTTATGTTTAGATCTTTTATGCTTGCTTTTCAAAA
Consider B1, for which the binding signal in the data set with DmORC Orc4-R97A and in the data set with DmORC Orc3-K141A was ~3 fold higher Kd than wild type each time.

B2: full-length MBP-tagged Drosophila Cdc6 (MBP-DmCdc6) (natural protein, UniProt Q9VSM9 1-662, looked up)
chain: MAAVRRSTRLSSISKATAASPLPPSTQTPRRSEVWKRRQPKKVLADSDEEEEVVTAIYDLTSPVSENNENRNVLNKMDKISRRRTSQVQVAQSELPKTPRSTKKTVQSAGSSRAKREEENREATARFLEGEQDSEVDPLHGSPPKQRKLQPLPQHLISPSRLLDRLSIDERQEEEVEATTHKTETAEQQPKHQAKDEAKPRPKQQEDPLAQKQQEKPPTKQPNKNQTKEKSNIQTNEETQQNNLPSPSRNKYQNARRVLNSAETQNLPGRESQLQELREFFSNHLESQTSGSLYVSGQPGTGKTACLSLLLRDPDFSKRLQRVYINCTSIASVGAVYKKLCTELQLKVSGRTERDHLEAIQRHLKTAKRMLLLVLDEIDQLCTSRQEVLYTIFEWPALPGSRILLVGIANSLDLTDRALMRLNARCELKPRLMHFPPYSKQQIVEIFKSRLAEAEVLDVFPPVTLQLLAAKVSAISGDVRRALDIGRRVVEIAEQQKRDGEKEFNMKALQLEGKDAVEAKEKQDTLKPVQVTQVAAVLNKVYGASQNLEEDIEASFPLQQKLMLCTLVLMLRNERNKDISMGRLHEVYRRVCAKRNILALDQAEFTGTVDLVETRGILRIMRKKEPRLHKVLLQWDEEEVHAALSDKQLIASILSDTACLSK
notes: TEV site between MBP and Cdc6; source: Hi5 insect cells, baculovirus, purified (amylose, gel filtration); not shown: MBP, N-terminal, kept
With B2, in data set [2], the binding result was “binds”.

B3: 40 bp poly(dA.dT) (dsDNA)
DNA 1: TTTTTTTTTTTTTTTTTTTTTTTTTTTTTTTTTTTTTTTT
DNA 2: AAAAAAAAAAAAAAAAAAAAAAAAAAAAAAAAAAAAAAAA
As usually defined, the Kd is the concentration at which binding is half-saturated. In the case of B3, the Kd with DmORC (Orc1-6) wild type [3] is 2.1 nM.

B4: 60 bp AT-rich (dsDNA)
DNA 1: CCTGCAGGCCTTTTGAAAAGCAAGCATAAAAGATCTAAACATAAAATCTGTAAAATAACA
DNA 2: TGTTATTTTACAGATTTTATGTTTAGATCTTTTATGCTTGCTTTTCAAAAGGCCTGCAGG
With B4, the binding result (with DmORC Orc1deltaN; in data set [4]) was “binds” throughout.

B5: 40 bp 100% GC (dsDNA)
DNA 1: CGCCGGGGCCGGGGGCGCCCCGCCGCGCGGGGCCGGGCCC
DNA 2: GGGCCCGGCCCCGCGCGGCGGGGCGCCCCCGGCCCCGGCG
With B5, the binding signal with DmORC (Orc1-6) wild type [5] is ~20 fold higher Kd than poly(dA.dT).

B6: 60 bp poly(dA.dT) (dsDNA)
DNA 1: AAAAAAAAAAAAAAAAAAAAAAAAAAAAAAAAAAAAAAAAAAAAAAAAAAAAAAAAAAAA
DNA 2: TTTTTTTTTTTTTTTTTTTTTTTTTTTTTTTTTTTTTTTTTTTTTTTTTTTTTTTTTTTT
Turning to B6, the binding result in data set [6] is on record as “binds”.
